The values that follow come from publication PMC9299544.

Assay [1] concerns the target wild-type mouse myosin-15 motor domain with 2 IQ motifs (MD-2IQ), heavy chain (mouse). Nature of the assay: SEC; heavy chain, ELC and RLC co-expressed in Sf9; FLAG M2 resin, MonoQ, then Superdex 200 in 10 mM Mops, 100 mM KCl, 0.1 mM EGTA, pH 7.0; single peak. (In general: SEC sorts molecules by how far they enter the pores of the column.)
The target of assay [2] is F-actin (UniProt P68133). Particulars: cited from earlier work.
For assay [3], the target named is F-actin (UniProt P68133). Particulars: cited from earlier work. This is another data set of the same source.
In assay [4] the target is chicken skeletal muscle actin (ADP F-actin) (chicken) (UniProt P68139). Nature of the assay: cryo-EM structure; rigor state: 6 uM myosin-15 treated with apyrase (10 U/ml), applied twice to 0.6 uM ADP F-actin on the grid; KMEI buffer with 0.01% NP-40 substitute; 25°C; helical reconstruction, symmetry expansion and focused classification.
Assay [5] shares this target. The assay is described as follows: cryo-EM structure; Mg-ADP state: wild-type myosin-15 incubated with 5 mM ADP-Mg for 20 min, applied to 0.6 uM ADP F-actin on the grid; else as for the rigor samples.

Where two headings read alike, the source gives them in different places.

Usually stoichiometry N stands for the number of molecules, sites or subunits per partner or assembly. In general, Kd refers to the concentration at which binding is half-saturated.

As to “bovine smooth muscle essential light chain (ELC; MYL6) (from UniProt P60661 1-151) (natural protein)”, the stoichiometry N in assay [1] worked out at 1.
The same measure, in the same setting: in the case of “chicken regulatory light chain (RLC; MYL12B) (natural protein)” it was 1.
Consider “myosin-15 motor domain (from UniProt Q9QZZ4)”, for which the Kd with F-actin [2] is 200 nM; with F-actin [3] it was 310 nM.
“wild-type mouse myosin-15 motor domain with 2 IQ motifs (MD-2IQ), as the myosin-15:ELC:RLC complex (from UniProt P60661 1-151)”: the stoichiometry N in assay [4] and in assay [5] was 1 each time.
